# Source: article PMC4569481, “Pseudomonas aeruginosa Uses Dihydrolipoamide Dehydrogenase (Lpd) to Bind to the Human Terminal Pathway Regulators Vitronectin and Clusterin to Inhibit Terminal Pathway Complement Attack” (PLoS ONE, 2015)
# B1: clusterin, purified from human plasma (natural protein)
# chain 1: DQTVSDNELQEMSNQGSKYVNKEIQNAVNGVKQIKTLIEKTNEERKTLLSNLEEAKKKKEDALNETRESETKLKELPGVCNETMMALWEECKPCLKQTCMKFYARVCRSGSGLVGRQLEEFLNQSSPFYFWMNGDRIDSLLENDRQQTHMLDVMQDHFSRASSIIDELFQDRFFTREPQDTYHYLPFSLPHRRPHFFFPKSRIVR
# chain 2: SLMPFSPYEPLNFHAMFQPFLEMIHEAQQAMDIHFHSPAFQHPPTEFIREGDDDRTVCREIRHNSTGCLRMKDQCDKCREILSVDCSTNNPSQAKLRRELDESLQVAERLTRKYNELLKSYQWKMLNTSSLLEQLNEQFNWVSRLANLTQGEDQYYLRVTTVASHTSDSDVPSGVTEVVVKLFDSDPITVTVPVEVSRKNPKFMETVAEKALQEYRKKHREE
# notes: Disulfide-linked heterodimer of one alpha and one beta chain of 40 kDa each; In the MST experiment labelled with NT-647 RED-NHS; source: bought: BioVision, purified from human plasma; copies: 1 + 1
# B2: Dihydrolipoamide dehydrogenase (Lpd) of P. aeruginosa, recombinant full length (Lpd^1-478) (natural protein)
# chain: MSQKFDVVVIGAGPGGYVAAIRAAQLGLKTACIEKYIGKEGKVALGGTCLNVGCIPSKALLDSSYKYHEAKEAFKVHGIEAKGVTIDVPAMVARKANIVKNLTGGIATLFKANGVTSFEGHGKLLANKQVEVTGLDGKTQVLEAENVIIASGSRPVEIPPAPLTDDIIVDSTGALEFQAVPKKLGVIGAGVIGLELGSVWARLGAEVTVLEALDKFLPAADEQIAKEALKVLTKQGLNIRLGARVTASEVKKKQVTVTFTDANGEQKETFDKLIVAVGRRPVTTDLLAADSGVTLDERGFIYVDDHCKTSVPGVFAIGDVVRGAMLAHKASEEGVMVAERIAGHKAQMNYDLIPSVIYTHPEIAWVGKTEQTLKAEGVEVNVGTFPFAASGRAMAANDTTGLVKVIADAKTDRVLGVHVIGPSAAELVQQGAIGMEFGTSAEDLGMMVFSHPTLSEALHEAALAVNGHAIHIANRKKR
# notes: On the gel two bands, 57 and 50 kDa
# B3: Lpd deletion mutant Lpd^1-287 (domain or fragment, P. aeruginosa strain PAO1, UniProt Q9I3D1 1-287, looked up)
# chain: MSQKFDVVVIGAGPGGYVAAIRAAQLGLKTACIEKYIGKEGKVALGGTCLNVGCIPSKALLDSSYKYHEAKEAFKVHGIEAKGVTIDVPAMVARKANIVKNLTGGIATLFKANGVTSFEGHGKLLANKQVEVTGLDGKTQVLEAENVIIASGSRPVEIPPAPLTDDIIVDSTGALEFQAVPKKLGVIGAGVIGLELGSVWARLGAEVTVLEALDKFLPAADEQIAKEALKVLTKQGLNIRLGARVTASEVKKKQVTVTFTDANGEQKETFDKLIVAVGRRPVTTDLL
# notes: Dihydrolipoamide dehydrogenase (Lpd), P. aeruginosa strain PAO1, residues 1-287; also called Lpd^1-287: 37 kDa
# B4: vitronectin, monomeric, purified from human plasma (natural protein)
# chain: DQESCKGRCTEGFNVDKKCQCDELCSYYQSCCTDYTAECKPQVTRGDVFTMPEDEYTVYDDGEEKNNATVHEQVGGPSLTSDLQAQSKGNPEQTPVLKPEEEAPAPEVGASKPEGIDSRPETLHPGRPQPPAEEELCSGKPFDAFTDLKNGSLFAFRGQYCYELDEKAVRPGYPKLIRDVWGIEGPIDAAFTRINCQGKTYLFKGSQYWRFEDGVLDPDYPRNISDGFDGIPDNVDAALALPAHSYSGRERVYFFKGKQYWEYQFQHQPSQEECEGSSLSAVFEHFAMMQRDSWEDIFELLFWGRTSAGTRQPQFISRDWHGVPGQVDAAMAGRIYISGMAPRPSLAKKQRFRHRNRKGYRSQRGHSRGRNQNSRRPSRATWLSLFSSEESNLGANNYDDYRMDWLVPATCEPIQSVFFFSGDKYYRVNLRTRRVDTVDPPYPRSIAQYWLGCPAPGHL
# notes: vitronectin, human, purified from plasma; In the MST experiment labelled with NT-647 RED-NHS; Plasma vitronectin circulates as variants of 75 and 65 kDa; also called Vn; full-length vitronectin; source: bought: Corning, purified from human plasma
# B5: Lpd deletion mutant Lpd^1-382 (domain or fragment, P. aeruginosa strain PAO1, UniProt Q9I3D1 1-382, looked up)
# chain: MSQKFDVVVIGAGPGGYVAAIRAAQLGLKTACIEKYIGKEGKVALGGTCLNVGCIPSKALLDSSYKYHEAKEAFKVHGIEAKGVTIDVPAMVARKANIVKNLTGGIATLFKANGVTSFEGHGKLLANKQVEVTGLDGKTQVLEAENVIIASGSRPVEIPPAPLTDDIIVDSTGALEFQAVPKKLGVIGAGVIGLELGSVWARLGAEVTVLEALDKFLPAADEQIAKEALKVLTKQGLNIRLGARVTASEVKKKQVTVTFTDANGEQKETFDKLIVAVGRRPVTTDLLAADSGVTLDERGFIYVDDHCKTSVPGVFAIGDVVRGAMLAHKASEEGVMVAERIAGHKAQMNYDLIPSVIYTHPEIAWVGKTEQTLKAEGVEVNV
# notes: Dihydrolipoamide dehydrogenase (Lpd), P. aeruginosa strain PAO1, residues 1-382; also called Lpd^1-382: 53 kDa
# Key:
# Conditions in all cases: both partners purified
# [1] = target: B2; assay: MST; fluid phase; NT-647-labeled vitronectin (50 nM) or clusterin (25 nM) mixed with Lpd in 1:2 dilutions (0.001 to 50 μM); 50 mM Tris-HCl pH 7.6, 150 mM NaCl, 10 mM MgCl2, 0.05% Tween-20; RT; 50% LED power, 80% MST power
# Factor H = target: T1, Factor H (human, UniProt P08603 19-1231); assay: ELISA; two human ligands added together to immobilized Lpd, one at a constant concentration (vitronectin 5 μg/ml, clusterin 2.5 μg/ml, Factor H 5 μg/ml or plasminogen 5 μg/ml), the other at increasing concentrations; each detected with its own antibody
# T1 construct: complement Factor H, human; source: bought: Complement Technology
# [2] = target: B4; assay: ELISA; equimolar amounts (13.3 nM) of full length Lpd and Lpd deletion mutants immobilized on microtiter plates; vitronectin or clusterin added; bound ligand quantified with antibodies
# [3] = target: T2, Lpd deletion mutant Lpd^1-160 (P. aeruginosa strain PAO1, UniProt Q9I3D1 1-160); assay: as above
# T2 construct: Dihydrolipoamide dehydrogenase (Lpd), P. aeruginosa strain PAO1, residues 1-160; also called Lpd^1-160: 20 kDa; N-terminal Lpd^1-160
# [4] = target: Lpd deletion mutant Lpd^264-478 (P. aeruginosa strain PAO1, UniProt Q9I3D1 264-478); assay: as above
# [5] = target: Lpd deletion mutant Lpd^141-478 (P. aeruginosa strain PAO1, UniProt Q9I3D1 141-478); assay: as above
# [6] = target: B2; assay: ELISA; two human ligands added together to immobilized Lpd, one at a constant concentration (vitronectin 5 μg/ml, clusterin 2.5 μg/ml, Factor H 5 μg/ml or plasminogen 5 μg/ml), the other at increasing concentrations; each detected with its own antibody
# [7] = target: B1; assay: ELISA; equimolar amounts (13.3 nM) of full length Lpd and Lpd deletion mutants immobilized on microtiter plates; vitronectin or clusterin added; bound ligand quantified with antibodies
# T1 sequence (P08603 19-1231): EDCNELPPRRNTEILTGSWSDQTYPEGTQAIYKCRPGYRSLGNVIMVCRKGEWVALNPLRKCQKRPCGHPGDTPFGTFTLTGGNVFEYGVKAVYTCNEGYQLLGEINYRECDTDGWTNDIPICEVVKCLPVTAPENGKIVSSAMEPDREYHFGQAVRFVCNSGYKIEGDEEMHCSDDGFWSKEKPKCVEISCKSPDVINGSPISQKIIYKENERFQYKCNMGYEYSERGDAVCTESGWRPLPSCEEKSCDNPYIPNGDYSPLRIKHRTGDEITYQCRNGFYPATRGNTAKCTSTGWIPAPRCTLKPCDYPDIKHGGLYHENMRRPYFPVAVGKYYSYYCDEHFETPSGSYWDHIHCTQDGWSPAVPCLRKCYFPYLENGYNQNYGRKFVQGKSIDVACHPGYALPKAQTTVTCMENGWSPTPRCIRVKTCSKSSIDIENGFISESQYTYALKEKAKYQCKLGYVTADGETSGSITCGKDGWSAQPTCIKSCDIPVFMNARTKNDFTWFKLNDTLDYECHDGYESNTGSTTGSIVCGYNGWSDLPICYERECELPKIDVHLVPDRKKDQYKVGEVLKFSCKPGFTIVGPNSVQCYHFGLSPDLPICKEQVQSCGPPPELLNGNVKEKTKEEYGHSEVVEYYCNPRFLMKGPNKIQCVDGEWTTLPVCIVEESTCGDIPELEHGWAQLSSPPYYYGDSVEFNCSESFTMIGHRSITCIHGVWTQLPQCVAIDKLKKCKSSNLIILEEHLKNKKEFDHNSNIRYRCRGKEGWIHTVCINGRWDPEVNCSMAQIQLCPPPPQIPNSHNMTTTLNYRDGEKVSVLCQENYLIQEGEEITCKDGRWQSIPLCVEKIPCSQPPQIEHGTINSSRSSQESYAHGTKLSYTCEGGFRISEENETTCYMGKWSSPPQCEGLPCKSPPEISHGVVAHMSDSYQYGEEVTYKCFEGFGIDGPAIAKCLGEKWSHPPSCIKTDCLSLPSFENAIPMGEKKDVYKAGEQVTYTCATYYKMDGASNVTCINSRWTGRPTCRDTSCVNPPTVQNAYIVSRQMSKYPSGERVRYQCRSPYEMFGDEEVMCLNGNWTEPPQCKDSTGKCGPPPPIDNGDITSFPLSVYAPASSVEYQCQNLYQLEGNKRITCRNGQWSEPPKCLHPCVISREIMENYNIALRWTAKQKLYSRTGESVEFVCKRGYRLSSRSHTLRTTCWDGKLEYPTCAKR
binder,measurement,setting,value
B1,Kd,[1],654 ± 54 nM
B2,binding result,Factor H,binds
B3,binding result,[2],binds
B4,percent reduction of binding (ELISA signal),[3],51%
same,percent reduction of binding (ELISA signal),[4],47%
same,percent reduction of binding (ELISA signal),[5],47%
same,percent reduction of Factor H binding to Lpd by vitronectin at four-fold molar excess,[6],37%
same,Kd,[1],600 ± 50 nM
B5,binding result,[2],binds
same,binding result,[7],binds
